# Measurements as given in the supplement of paper PMC9112550, “Optimization of the antimicrobial peptide Bac7 by deep mutational scanning” (BMC Biology, 2022).
# Test system: Escherichia coli TOP10
# Experiment: shrunken log2 fold change of peptide-encoding DNA abundance (4.5 h post-induction vs induction); higher = less antimicrobial activity (less host growth inhibition)
# Conditions: time post-induction: 4.5 h; library: site-saturation at positions 5, 18, 19, 20
# 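Also: peptides expressed intracellularly from a pBAD plasmid library in pooled LB shake-flask culture, induced with 0.3% L-arabinose, DNA abundance read by NGS, three biological replicates, DESeq2 with apeglm shrinkage.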
row,Sequence,shrunken log2 fold change
1,RRIRTRPPRLPRPRPRPCDGPRP,0.134
2,RRIRDRPPRLPRPRPRPALDPRP,1.05
3,RRIRWRPPRLPRPRPRPWIFPRP,-0.679
4,RRIRYRPPRLPRPRPRPQCSPRP,-0.73
5,RRIRLRPPRLPRPRPRPWAGPRP,-0.0317
6,RRIRIRPPRLPRPRPRPREDPRP,-0.036
7,RRIRIRPPRLPRPRPRPDALPRP,-0.206
8,RRIRDRPPRLPRPRPRPQCVPRP,0.0602
9,RRIRYRPPRLPRPRPRPDIYPRP,0.0393
10,RRIRERPPRLPRPRPRPITAPRP,-0.573
11,RRIRNRPPRLPRPRPRPSSFPRP,-0.127
12,RRIRFRPPRLPRPRPRPGPDPRP,0.325
13,RRIRKRPPRLPRPRPRPIYNPRP,-0.0567
14,RRIRYRPPRLPRPRPRPIQKPRP,-0.00992
15,RRIRWRPPRLPRPRPRPGWYPRP,-0.0191
16,RRIRRRPPRLPRPRPRPHWRPRP,0.0155
17,RRIRNRPPRLPRPRPRPTTSPRP,-0.292
18,RRIRTRPPRLPRPRPRPLAAPRP,0.363
19,RRIRNRPPRLPRPRPRPMAEPRP,0.0284
20,RRIRDRPPRLPRPRPRPGYAPRP,0.137
21,RRIRMRPPRLPRPRPRPTFAPRP,0.573
22,RRIRIRPPRLPRPRPRPNTFPRP,-0.926
23,RRIRWRPPRLPRPRPRPPWYPRP,-0.0946
24,RRIRTRPPRLPRPRPRPWEMPRP,-0.0783
25,RRIRQRPPRLPRPRPRPFFNPRP,-0.438

row,Sequence,shrunken log2 fold change
1,RRIRDRPPRLPRPRPRPQVVPRP,0.0572
2,RRIRKRPPRLPRPRPRPIRAPRP,0.14
3,RRIRKRPPRLPRPRPRPMSKPRP,0.388
4,RRIRYRPPRLPRPRPRPDPRPRP,-0.0317
5,RRIRGRPPRLPRPRPRPVREPRP,1.11
6,RRIRIRPPRLPRPRPRPAPMPRP,0.0013
7,RRIRWRPPRLPRPRPRPWVTPRP,-0.37
8,RRIRKRPPRLPRPRPRPWGIPRP,-0.168
9,RRIRHRPPRLPRPRPRPKSIPRP,-0.136
10,RRIRWRPPRLPRPRPRPEDCPRP,-0.00079
11,RRIRYRPPRLPRPRPRPWAQPRP,-0.37
12,RRIRTRPPRLPRPRPRPQPCPRP,-0.0212
13,RRIRPRPPRLPRPRPRPGAKPRP,0.265
14,RRIRHRPPRLPRPRPRPIIYPRP,-0.295
15,RRIRDRPPRLPRPRPRPSFPPRP,-0.362
16,RRIRGRPPRLPRPRPRPAMWPRP,1.02
17,RRIRYRPPRLPRPRPRPEKNPRP,-0.526
18,RRIRRRPPRLPRPRPRPDAIPRP,-0.0233
19,RRIRPRPPRLPRPRPRPVSKPRP,-0.166
20,RRIRRRPPRLPRPRPRPSFKPRP,-0.117
21,RRIRSRPPRLPRPRPRPLEWPRP,0.14
22,RRIRWRPPRLPRPRPRPMCHPRP,-0.115
23,RRIRFRPPRLPRPRPRPIREPRP,-0.0362
24,RRIRVRPPRLPRPRPRPPPAPRP,1.07
25,RRIRQRPPRLPRPRPRPNQWPRP,0.0886

row,Sequence,shrunken log2 fold change
1,RRIRPRPPRLPRPRPRPFNLPRP,-0.771
2,RRIRQRPPRLPRPRPRPEVEPRP,0.0391
3,RRIRGRPPRLPRPRPRPFYEPRP,0.0153
4,RRIRRRPPRLPRPRPRPTGFPRP,0.728
5,RRIRIRPPRLPRPRPRPGWHPRP,-0.0557
6,RRIRIRPPRLPRPRPRPDIKPRP,-0.576
7,RRIRPRPPRLPRPRPRPQFKPRP,0.0824
8,RRIRPRPPRLPRPRPRPEMKPRP,-0.0423
9,RRIRGRPPRLPRPRPRPDMNPRP,1.35
10,RRIRSRPPRLPRPRPRPYSEPRP,-0.561
11,RRIRPRPPRLPRPRPRPCDRPRP,0.0787
12,RRIRCRPPRLPRPRPRPDIEPRP,-0.0833
13,RRIRDRPPRLPRPRPRPVKAPRP,0.026
14,RRIRIRPPRLPRPRPRPIENPRP,-0.223
15,RRIRSRPPRLPRPRPRPENVPRP,0.0202
16,RRIRVRPPRLPRPRPRPHESPRP,0.22
17,RRIRPRPPRLPRPRPRPGYMPRP,-0.126
18,RRIRTRPPRLPRPRPRPLGWPRP,0.811
19,RRIRWRPPRLPRPRPRPCNYPRP,-0.2
20,RRIRYRPPRLPRPRPRPKVWPRP,0.221
21,RRIRQRPPRLPRPRPRPRPYPRP,-0.357
22,RRIRPRPPRLPRPRPRPDSSPRP,-0.000765
23,RRIRPRPPRLPRPRPRPPMRPRP,0.833
24,RRIRGRPPRLPRPRPRPHQDPRP,0.165
25,RRIRNRPPRLPRPRPRPYRIPRP,-0.115

row,Sequence,shrunken log2 fold change
1,RRIRTRPPRLPRPRPRPRPCPRP,-0.0153
2,RRIRGRPPRLPRPRPRPDGTPRP,1.02
3,RRIRTRPPRLPRPRPRPPHDPRP,0.275
4,RRIRERPPRLPRPRPRPLCNPRP,-0.342
5,RRIRDRPPRLPRPRPRPFQIPRP,0.0155
6,RRIRARPPRLPRPRPRPNHWPRP,0.0522
7,RRIRVRPPRLPRPRPRPHCNPRP,-0.408
8,RRIRQRPPRLPRPRPRPETWPRP,0.00978
9,RRIRRRPPRLPRPRPRPLIVPRP,-0.0866
10,RRIRFRPPRLPRPRPRPFEMPRP,-0.0734
11,RRIRTRPPRLPRPRPRPVYHPRP,-1.34
12,RRIRIRPPRLPRPRPRPTKSPRP,-0.141
13,RRIRFRPPRLPRPRPRPDMRPRP,-0.000242
14,RRIRYRPPRLPRPRPRPVVWPRP,-0.00976
15,RRIRLRPPRLPRPRPRPWPIPRP,0.0461
16,RRIRYRPPRLPRPRPRPAYWPRP,-0.029
17,RRIRYRPPRLPRPRPRPKHHPRP,-0.986
18,RRIRIRPPRLPRPRPRPLMPPRP,1.27
19,RRIRQRPPRLPRPRPRPGHIPRP,-0.0594
20,RRIRVRPPRLPRPRPRPEWPPRP,0.225
21,RRIRRRPPRLPRPRPRPNWQPRP,0.00842
22,RRIRARPPRLPRPRPRPNMHPRP,0.0638
23,RRIRKRPPRLPRPRPRPLKTPRP,-0.151
24,RRIRTRPPRLPRPRPRPVPGPRP,0.151
25,RRIRTRPPRLPRPRPRPSWNPRP,-0.34

row,Sequence,shrunken log2 fold change
1,RRIRLRPPRLPRPRPRPGNQPRP,-0.0104
2,RRIRARPPRLPRPRPRPDDKPRP,-0.112
3,RRIRQRPPRLPRPRPRPTAGPRP,0.144
4,RRIRTRPPRLPRPRPRPLCNPRP,-0.484
5,RRIRDRPPRLPRPRPRPRWPPRP,0.594
6,RRIRGRPPRLPRPRPRPYSHPRP,-0.129
7,RRIRSRPPRLPRPRPRPVWAPRP,0.67
8,RRIRHRPPRLPRPRPRPDTKPRP,0.162
9,RRIRCRPPRLPRPRPRPCDCPRP,-0.139
10,RRIRQRPPRLPRPRPRPQPKPRP,0.0658
11,RRIRHRPPRLPRPRPRPTPLPRP,0.243
12,RRIRQRPPRLPRPRPRPAPDPRP,0.261
13,RRIRPRPPRLPRPRPRPEMWPRP,0.579
14,RRIRSRPPRLPRPRPRPDMQPRP,-0.00211
15,RRIRMRPPRLPRPRPRPILSPRP,0.00774
16,RRIRYRPPRLPRPRPRPINLPRP,-0.145
17,RRIRLRPPRLPRPRPRPLHKPRP,0.223
18,RRIRGRPPRLPRPRPRPDDSPRP,0.121
19,RRIRARPPRLPRPRPRPYHTPRP,-0.407
20,RRIRCRPPRLPRPRPRPRYWPRP,-0.0818
21,RRIRRRPPRLPRPRPRPYMIPRP,-0.263
22,RRIRFRPPRLPRPRPRPYMGPRP,-0.225
23,RRIRTRPPRLPRPRPRPEHSPRP,-0.237
24,RRIRERPPRLPRPRPRPQMAPRP,0.00684
25,RRIRTRPPRLPRPRPRPHELPRP,-0.125

row,Sequence,shrunken log2 fold change
1,RRIRRRPPRLPRPRPRPMVVPRP,0.00307
2,RRIRARPPRLPRPRPRPALMPRP,0.534
3,RRIRHRPPRLPRPRPRPAKLPRP,-0.352
4,RRIRKRPPRLPRPRPRPAAEPRP,1.12
5,RRIRLRPPRLPRPRPRPSWMPRP,-0.167
6,RRIRSRPPRLPRPRPRPIWLPRP,0.222
7,RRIRNRPPRLPRPRPRPMWFPRP,0.0647
8,RRIRDRPPRLPRPRPRPFPYPRP,-0.136
9,RRIRMRPPRLPRPRPRPPSMPRP,0.761
10,RRIRMRPPRLPRPRPRPWNGPRP,-0.0377
11,RRIRWRPPRLPRPRPRPKFRPRP,0.077
12,RRIRSRPPRLPRPRPRPNRDPRP,-0.233
13,RRIRIRPPRLPRPRPRPVVFPRP,0.0165
14,RRIRPRPPRLPRPRPRPWNSPRP,-0.163
15,RRIRFRPPRLPRPRPRPSFHPRP,-0.694
16,RRIRPRPPRLPRPRPRPWKLPRP,-0.0861
17,RRIRYRPPRLPRPRPRPDVCPRP,-0.124
18,RRIRIRPPRLPRPRPRPCKNPRP,-0.299
19,RRIRMRPPRLPRPRPRPESMPRP,2.6
20,RRIRKRPPRLPRPRPRPQLIPRP,0.0871
21,RRIRLRPPRLPRPRPRPDYWPRP,-0.596
22,RRIRSRPPRLPRPRPRPREKPRP,0.0145
23,RRIRARPPRLPRPRPRPEARPRP,1.42
24,RRIRNRPPRLPRPRPRPREGPRP,0.187
25,RRIRGRPPRLPRPRPRPPRHPRP,0.818
